Earlier results as cited in publication PMC7599994.

Biological target: HIV-1 capsid CA CTD (Human immunodeficiency virus 1) (UniProt O93182)

For “HIV-1 capsid CA CTD (from UniProt O93182)”, the Kd is listed as 10 µM.
